*1 amine or outer side, *2 acyl side, *3 side chain or, on linkers, in order; H or OH if unused. Where no end group is shown, it is not given here. Side-chain parts run from the residue outwards. [ ]: non-standard residue; d: D form. The star is where a group is joined. γGlu = O=C(O)[C@H](CCC(=O)[*:2])N[*:1]; Palmitoyl = CCCCCCCCCCCCCCCC(=O)*; Aib = CC(C)(N)C(=O)O
T1: GIP receptor (UniProt P48546 22-466)
T1 sequence (looked up): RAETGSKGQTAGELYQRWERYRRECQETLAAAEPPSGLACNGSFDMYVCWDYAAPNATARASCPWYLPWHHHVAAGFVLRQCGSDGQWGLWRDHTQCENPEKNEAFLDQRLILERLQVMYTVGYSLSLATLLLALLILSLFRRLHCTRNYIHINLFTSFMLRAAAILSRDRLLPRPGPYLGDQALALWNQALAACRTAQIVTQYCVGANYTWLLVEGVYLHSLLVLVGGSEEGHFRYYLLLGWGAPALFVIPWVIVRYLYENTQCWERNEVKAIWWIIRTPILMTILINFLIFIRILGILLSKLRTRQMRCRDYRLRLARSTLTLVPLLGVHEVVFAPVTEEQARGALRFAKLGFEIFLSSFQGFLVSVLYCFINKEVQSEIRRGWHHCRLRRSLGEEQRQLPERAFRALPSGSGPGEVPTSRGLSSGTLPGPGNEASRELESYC


Assays:
Assay in all cases: cell-based or functional assay
GLP-1 receptor [1] = molecular target: T2, GLP-1 receptor (UniProt P43220 24-463, limits assumed)
GIP receptor [2] = molecular target: T1, GIP receptor
glucagon receptor [3] = molecular target: T3, glucagon receptor (UniProt P47871 26-477, limits assumed)
GLP-1 receptor [4] = molecular target: T2, GLP-1 receptor; remark: listed apart in the source
GIP receptor [5] = molecular target: T1, GIP receptor; remark: listed apart in the source
glucagon receptor [6] = molecular target: T3, glucagon receptor; remark: listed apart in the source

T3 sequence (P47871 26-477 limits assumed): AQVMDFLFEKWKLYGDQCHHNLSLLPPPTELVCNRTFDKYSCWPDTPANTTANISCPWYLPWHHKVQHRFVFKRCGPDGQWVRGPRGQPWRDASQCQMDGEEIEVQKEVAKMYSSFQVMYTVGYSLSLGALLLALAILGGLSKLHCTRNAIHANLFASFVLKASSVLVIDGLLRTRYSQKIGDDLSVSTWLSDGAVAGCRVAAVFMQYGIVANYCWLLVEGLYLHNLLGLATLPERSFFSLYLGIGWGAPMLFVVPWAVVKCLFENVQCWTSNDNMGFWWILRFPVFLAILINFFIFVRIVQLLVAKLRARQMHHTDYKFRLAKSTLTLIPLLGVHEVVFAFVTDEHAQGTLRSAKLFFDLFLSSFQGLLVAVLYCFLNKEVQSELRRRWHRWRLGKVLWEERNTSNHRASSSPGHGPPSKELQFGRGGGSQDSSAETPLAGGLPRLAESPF

Binder | % Relative activity at the Receptor for GLP-1 (GLP-1 receptor [1]) | % Relative activity at the Receptor for GIP (GIP receptor [2]) | % Relative activity at the Receptor for Glucagon (glucagon receptor [3]) | EC50, nM; GLP-1 Receptor (GLP-1 receptor [4]) | relative activity; GLP-1 Receptor (GLP-1 receptor [4]) | EC50, nM; GIP Receptor (GIP receptor [5]) | relative activity; GIP Receptor (GIP receptor [5]) | EC50, nM; Glucagon Receptor (glucagon receptor [6]) | relative activity; Glucagon Receptor (glucagon receptor [6])
Y[Aib]QGTFISDK([γGlu-γGlu-Palmitoyl])SIYLDKQAA[Aib]EFVNWLLAGGPSSGAPPPS-NH2 (N-terminus assumed; SMILES CCCCCCCCCCCCCCCC(=O)N[C@@H](CCC(=O)N[C@@H](CCC(=O)NCCCC[C@H](NC(=O)[C@H](CC(=O)O)NC(=O)[C@H](CO)NC(=O)[C@@H](NC(=O)[C@H](Cc1ccccc1)NC(=O)[C@@H](NC(=O)CNC(=O)[C@H](CCC(N)=O)NC(=O)C(C)(C)NC(=O)[C@@H](N)Cc1ccc(O)cc1)[C@@H](C)O)[C@@H](C)CC)C(=O)N[C@@H](CO)C(=O)N[C@H](C(=O)N[C@@H](Cc1ccc(O)cc1)C(=O)N[C@@H](CC(C)C)C(=O)N[C@@H](CC(=O)O)C(=O)N[C@@H](CCCCN)C(=O)N[C@@H](CCC(N)=O)C(=O)N[C@@H](C)C(=O)N[C@@H](C)C(=O)NC(C)(C)C(=O)N[C@@H](CCC(=O)O)C(=O)N[C@@H](Cc1ccccc1)C(=O)N[C@H](C(=O)N[C@@H](CC(N)=O)C(=O)N[C@@H](Cc1c[nH]c2ccccc12)C(=O)N[C@@H](CC(C)C)C(=O)N[C@@H](CC(C)C)C(=O)N[C@@H](C)C(=O)NCC(=O)NCC(=O)N1CCC[C@H]1C(=O)N[C@@H](CO)C(=O)N[C@@H](CO)C(=O)NCC(=O)N[C@@H](C)C(=O)N1CCC[C@H]1C(=O)N1CCC[C@H]1C(=O)N1CCC[C@H]1C(=O)N[C@@H](CO)C(N)=O)C(C)C)[C@@H](C)CC)C(=O)O)C(=O)O) [mt-385] | 3.18% | 715% | 239% |  |  |  |  |  | 
Y[Aib]EGTFTSDK([γGlu-γGlu-Palmitoyl])SIYLDKQAA[Aib]EFVNWLLAGGPSSGAPPPSK-NH2 (N-terminus assumed; SMILES CCCCCCCCCCCCCCCC(=O)N[C@@H](CCC(=O)N[C@@H](CCC(=O)NCCCC[C@H](NC(=O)[C@H](CC(=O)O)NC(=O)[C@H](CO)NC(=O)[C@@H](NC(=O)[C@H](Cc1ccccc1)NC(=O)[C@@H](NC(=O)CNC(=O)[C@H](CCC(=O)O)NC(=O)C(C)(C)NC(=O)[C@@H](N)Cc1ccc(O)cc1)[C@@H](C)O)[C@@H](C)O)C(=O)N[C@@H](CO)C(=O)N[C@H](C(=O)N[C@@H](Cc1ccc(O)cc1)C(=O)N[C@@H](CC(C)C)C(=O)N[C@@H](CC(=O)O)C(=O)N[C@@H](CCCCN)C(=O)N[C@@H](CCC(N)=O)C(=O)N[C@@H](C)C(=O)N[C@@H](C)C(=O)NC(C)(C)C(=O)N[C@@H](CCC(=O)O)C(=O)N[C@@H](Cc1ccccc1)C(=O)N[C@H](C(=O)N[C@@H](CC(N)=O)C(=O)N[C@@H](Cc1c[nH]c2ccccc12)C(=O)N[C@@H](CC(C)C)C(=O)N[C@@H](CC(C)C)C(=O)N[C@@H](C)C(=O)NCC(=O)NCC(=O)N1CCC[C@H]1C(=O)N[C@@H](CO)C(=O)N[C@@H](CO)C(=O)NCC(=O)N[C@@H](C)C(=O)N1CCC[C@H]1C(=O)N1CCC[C@H]1C(=O)N1CCC[C@H]1C(=O)N[C@@H](CO)C(=O)N[C@@H](CCCCN)C(N)=O)C(C)C)[C@@H](C)CC)C(=O)O)C(=O)O) [mt-369] | 385% | 204% | 1.54% | 0.0041 nM | 385% | 0.0014 nM | 204% | 2.19 nM | 1.54%
Y[Aib]QGTFTSDYSIYLDKQAA[Aib]EFVNWLLAGGPSSGAPPPSK([γGlu-γGlu-Palmitoyl])-NH2 (N-terminus assumed; SMILES CCCCCCCCCCCCCCCC(=O)N[C@@H](CCC(=O)N[C@@H](CCC(=O)NCCCC[C@H](NC(=O)[C@H](CO)NC(=O)[C@@H]1CCCN1C(=O)[C@@H]1CCCN1C(=O)[C@@H]1CCCN1C(=O)[C@H](C)NC(=O)CNC(=O)[C@H](CO)NC(=O)[C@H](CO)NC(=O)[C@@H]1CCCN1C(=O)CNC(=O)CNC(=O)[C@H](C)NC(=O)[C@H](CC(C)C)NC(=O)[C@H](CC(C)C)NC(=O)[C@H](Cc1c[nH]c2ccccc12)NC(=O)[C@H](CC(N)=O)NC(=O)[C@@H](NC(=O)[C@H](Cc1ccccc1)NC(=O)[C@H](CCC(=O)O)NC(=O)C(C)(C)NC(=O)[C@H](C)NC(=O)[C@H](C)NC(=O)[C@H](CCC(N)=O)NC(=O)[C@H](CCCCN)NC(=O)[C@H](CC(=O)O)NC(=O)[C@H](CC(C)C)NC(=O)[C@H](Cc1ccc(O)cc1)NC(=O)[C@@H](NC(=O)[C@H](CO)NC(=O)[C@H](Cc1ccc(O)cc1)NC(=O)[C@H](CC(=O)O)NC(=O)[C@H](CO)NC(=O)[C@@H](NC(=O)[C@H](Cc1ccccc1)NC(=O)[C@@H](NC(=O)CNC(=O)[C@H](CCC(N)=O)NC(=O)C(C)(C)NC(=O)[C@@H](N)Cc1ccc(O)cc1)[C@@H](C)O)[C@@H](C)O)[C@@H](C)CC)C(C)C)C(N)=O)C(=O)O)C(=O)O) [mt-368] | 419% | 296% | 492% | 0.0038 nM | 419% | 0.00097 nM | 296% | 0.0069 nM | 492%
